Reference: article PMC6637110

Biological target: its substrates (DNA-bound substrates of p97 on plasmid isolated from extract with p97i)
Assay: pull-down; dilution experiment: plasmid incubated 180 minutes in extract with CB-5083, isolated by plasmid pull-down, washed, resuspended in 100 volumes of ELB with or without 5 mM ATP, 21 °C; p97 retained on bead-bound DNA by Western blot over time

“p97 (endogenous, Xenopus egg extract) (from UniProt P23787 1-805) (natural protein)” showed a decrease of DNA-bound p97 within 180 minutes, with ATP of 90% and a decrease of DNA-bound p97 within 180 minutes, without ATP of 70%.
